System: Escherichia coli TOP10
Experiment: shrunken log2 fold change of peptide-encoding DNA abundance (4.5 h post-induction vs induction); higher = less antimicrobial activity (less host growth inhibition)
Conditions: time post-induction: 4.5 h; library: site-saturation at positions 5, 18, 19, 20
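Also: peptides expressed intracellularly from a pBAD plasmid library in pooled LB shake-flask culture, induced with 0.3% L-arabinose, DNA abundance read by NGS, three biological replicates, DESeq2 with apeglm shrinkage.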

Row | Sequence | shrunken log2 fold change
1 | RRIRYRPPRLPRPRPRPDVEPRP | -0.00174
2 | RRIRGRPPRLPRPRPRPFQWPRP | -0.0859
3 | RRIRVRPPRLPRPRPRPGVWPRP | 1.88
4 | RRIRMRPPRLPRPRPRPMYWPRP | -0.169
5 | RRIRHRPPRLPRPRPRPSFGPRP | -0.561
6 | RRIRMRPPRLPRPRPRPEMLPRP | 3.45
7 | RRIRYRPPRLPRPRPRPAFEPRP | -0.0224
8 | RRIRKRPPRLPRPRPRPMMCPRP | 0.0781
9 | RRIRQRPPRLPRPRPRPVDQPRP | 0.0619
10 | RRIRSRPPRLPRPRPRPKHHPRP | -0.387
11 | RRIRWRPPRLPRPRPRPGVKPRP | 0.505
12 | RRIRYRPPRLPRPRPRPQMFPRP | -0.0885
13 | RRIRERPPRLPRPRPRPMPSPRP | 0.156
14 | RRIRIRPPRLPRPRPRPSRQPRP | -0.747
15 | RRIRHRPPRLPRPRPRPCPMPRP | -0.0207
16 | RRIRTRPPRLPRPRPRPMIAPRP | 0.000989
17 | RRIRLRPPRLPRPRPRPDDNPRP | -0.138
18 | RRIRDRPPRLPRPRPRPDNPPRP | -0.159
19 | RRIRWRPPRLPRPRPRPWGMPRP | -0.246
20 | RRIRHRPPRLPRPRPRPRRSPRP | 0.0555
21 | RRIRKRPPRLPRPRPRPRHCPRP | 0.0472
22 | RRIRVRPPRLPRPRPRPIIAPRP | -0.195
23 | RRIRYRPPRLPRPRPRPHLLPRP | -0.515
24 | RRIRIRPPRLPRPRPRPAYMPRP | -0.688
25 | RRIRARPPRLPRPRPRPFWEPRP | 0.269

Row | Sequence | shrunken log2 fold change
26 | RRIRGRPPRLPRPRPRPRPTPRP | 0.906
27 | RRIRGRPPRLPRPRPRPYFKPRP | -0.366
28 | RRIRHRPPRLPRPRPRPDAVPRP | 0.0938
29 | RRIRQRPPRLPRPRPRPQFHPRP | -0.591
30 | RRIRLRPPRLPRPRPRPNQRPRP | 0.00956
31 | RRIRHRPPRLPRPRPRPEYVPRP | -0.0134
32 | RRIRFRPPRLPRPRPRPYYEPRP | -0.231
33 | RRIRGRPPRLPRPRPRPKPFPRP | 0.601
34 | RRIRVRPPRLPRPRPRPGPEPRP | 0.22
35 | RRIRDRPPRLPRPRPRPTNCPRP | -0.0515
36 | RRIRGRPPRLPRPRPRPPMPPRP | 0.659
37 | RRIRWRPPRLPRPRPRPHWMPRP | 0.289
38 | RRIRTRPPRLPRPRPRPTGCPRP | -0.388
39 | RRIRNRPPRLPRPRPRPANHPRP | -0.208
40 | RRIRDRPPRLPRPRPRPPHMPRP | 1.51
41 | RRIRYRPPRLPRPRPRPSFPPRP | -0.831
42 | RRIRHRPPRLPRPRPRPKRTPRP | 0.00166
43 | RRIRFRPPRLPRPRPRPQDCPRP | 0.00177
44 | RRIRKRPPRLPRPRPRPPWHPRP | 0.349
45 | RRIRPRPPRLPRPRPRPMIPPRP | -0.124
46 | RRIRVRPPRLPRPRPRPFQHPRP | -0.131
47 | RRIRCRPPRLPRPRPRPGPHPRP | 0.0758
48 | RRIRPRPPRLPRPRPRPESKPRP | 0.224
49 | RRIRVRPPRLPRPRPRPVQYPRP | -0.0224
50 | RRIRHRPPRLPRPRPRPMKLPRP | -0.254

Row | Sequence | shrunken log2 fold change
51 | RRIRYRPPRLPRPRPRPDIIPRP | -0.609
52 | RRIRYRPPRLPRPRPRPLTLPRP | -0.267
53 | RRIRQRPPRLPRPRPRPYYLPRP | -0.253
54 | RRIRCRPPRLPRPRPRPFVKPRP | -0.4
55 | RRIRKRPPRLPRPRPRPKRFPRP | -0.0257
56 | RRIRGRPPRLPRPRPRPTEIPRP | 0.284
57 | RRIRQRPPRLPRPRPRPFEHPRP | -0.00133
58 | RRIRFRPPRLPRPRPRPLAAPRP | 0.315
59 | RRIRERPPRLPRPRPRPWLEPRP | 0.101
60 | RRIRARPPRLPRPRPRPAHMPRP | -0.114
61 | RRIRARPPRLPRPRPRPRCVPRP | 0.347
62 | RRIRVRPPRLPRPRPRPYWEPRP | -0.508
63 | RRIRIRPPRLPRPRPRPTEYPRP | -0.251
64 | RRIRARPPRLPRPRPRPFGDPRP | 0.483
65 | RRIRMRPPRLPRPRPRPCPMPRP | -0.0993
66 | RRIRKRPPRLPRPRPRPFCVPRP | 0.706
67 | RRIRVRPPRLPRPRPRPMNDPRP | -0.187
68 | RRIRGRPPRLPRPRPRPTFKPRP | 0.538
69 | RRIRTRPPRLPRPRPRPWVPPRP | 0.252
70 | RRIRLRPPRLPRPRPRPKDPPRP | -0.221
71 | RRIRDRPPRLPRPRPRPQKSPRP | -0.11
72 | RRIRDRPPRLPRPRPRPPCCPRP | -0.124
73 | RRIRYRPPRLPRPRPRPRTVPRP | -0.0278
74 | RRIRLRPPRLPRPRPRPQMKPRP | -0.0293
75 | RRIRCRPPRLPRPRPRPCWRPRP | 0.252

Row | Sequence | shrunken log2 fold change
76 | RRIRVRPPRLPRPRPRPRPLPRP | 0.378
77 | RRIRQRPPRLPRPRPRPDLEPRP | -0.0293
78 | RRIRERPPRLPRPRPRPQSGPRP | 0.00436
79 | RRIRHRPPRLPRPRPRPEQVPRP | -0.0321
80 | RRIRMRPPRLPRPRPRPEMSPRP | -0.00133
81 | RRIRTRPPRLPRPRPRPDDEPRP | 0.0101
82 | RRIRKRPPRLPRPRPRPNKAPRP | 0.0692
83 | RRIRGRPPRLPRPRPRPNAQPRP | 0.836
84 | RRIRSRPPRLPRPRPRPCQIPRP | -0.231
85 | RRIRVRPPRLPRPRPRPRCNPRP | -0.135
86 | RRIRFRPPRLPRPRPRPISQPRP | -0.588
87 | RRIRKRPPRLPRPRPRPRAKPRP | 0.173
88 | RRIRIRPPRLPRPRPRPCMKPRP | -1.01
89 | RRIRRRPPRLPRPRPRPMHDPRP | 0.117
90 | RRIRDRPPRLPRPRPRPICRPRP | 0.266
91 | RRIRNRPPRLPRPRPRPSFLPRP | -0.473
92 | RRIRGRPPRLPRPRPRPTFIPRP | -0.0836
93 | RRIRNRPPRLPRPRPRPFLQPRP | -0.206
94 | RRIRDRPPRLPRPRPRPHDQPRP | -0.0965
95 | RRIRRRPPRLPRPRPRPEGHPRP | 0.488
96 | RRIRMRPPRLPRPRPRPGDVPRP | 0.333
97 | RRIRWRPPRLPRPRPRPRLMPRP | 0.44
98 | RRIRMRPPRLPRPRPRPMKHPRP | 0.0546
99 | RRIRSRPPRLPRPRPRPVFEPRP | -0.0222
100 | RRIRSRPPRLPRPRPRPQLMPRP | -0.1

Row | Sequence | shrunken log2 fold change
101 | RRIRKRPPRLPRPRPRPQADPRP | 0.0626
102 | RRIRGRPPRLPRPRPRPWTQPRP | 0.236
103 | RRIRRRPPRLPRPRPRPATYPRP | -0.0435
104 | RRIRCRPPRLPRPRPRPSKTPRP | -0.0722
105 | RRIRARPPRLPRPRPRPENKPRP | 0.31
106 | RRIRLRPPRLPRPRPRPYNSPRP | -0.514
107 | RRIRKRPPRLPRPRPRPWAQPRP | 0.315
108 | RRIRHRPPRLPRPRPRPGLTPRP | 0.129
109 | RRIRWRPPRLPRPRPRPTFPPRP | 0.197
110 | RRIRLRPPRLPRPRPRPQYWPRP | -0.275
111 | RRIRNRPPRLPRPRPRPSNVPRP | -0.615
112 | RRIRTRPPRLPRPRPRPSALPRP | -0.178
113 | RRIRQRPPRLPRPRPRPEQQPRP | -0.0316
114 | RRIRTRPPRLPRPRPRPPWDPRP | 0.294
115 | RRIRVRPPRLPRPRPRPRNCPRP | -0.129
116 | RRIRERPPRLPRPRPRPPTQPRP | 0.159
117 | RRIRKRPPRLPRPRPRPELSPRP | 0.0277
118 | RRIRNRPPRLPRPRPRPDYAPRP | -0.0367
119 | RRIRRRPPRLPRPRPRPFQCPRP | -0.00197
120 | RRIRTRPPRLPRPRPRPNFFPRP | 0.0096
121 | RRIRPRPPRLPRPRPRPASQPRP | 0.0417
122 | RRIRVRPPRLPRPRPRPQPQPRP | 0.302
123 | RRIRDRPPRLPRPRPRPWGEPRP | 0.0987
124 | RRIRARPPRLPRPRPRPWWVPRP | 0.066
125 | RRIRTRPPRLPRPRPRPGMTPRP | -0.2

Row | Sequence | shrunken log2 fold change
126 | RRIRTRPPRLPRPRPRPYHVPRP | -0.0196
127 | RRIRARPPRLPRPRPRPEDAPRP | 0.894
128 | RRIRVRPPRLPRPRPRPYIMPRP | -0.937
129 | RRIRQRPPRLPRPRPRPMANPRP | -0.18
130 | RRIRDRPPRLPRPRPRPSLYPRP | 0.266
131 | RRIRVRPPRLPRPRPRPQSDPRP | -0.0819
132 | RRIRMRPPRLPRPRPRPKIPPRP | 0.365
133 | RRIRRRPPRLPRPRPRPPACPRP | 0.619
134 | RRIRNRPPRLPRPRPRPLPHPRP | -0.387
135 | RRIRDRPPRLPRPRPRPGPWPRP | 0.287
136 | RRIRPRPPRLPRPRPRPWNWPRP | 0.3
137 | RRIRDRPPRLPRPRPRPSIYPRP | -0.313
138 | RRIRQRPPRLPRPRPRPDYVPRP | 0.07
139 | RRIRARPPRLPRPRPRPEAQPRP | 1.66
140 | RRIRPRPPRLPRPRPRPYMAPRP | -1.07
141 | RRIRCRPPRLPRPRPRPNGWPRP | -0.183
142 | RRIRRRPPRLPRPRPRPRYHPRP | 0.14
143 | RRIRCRPPRLPRPRPRPIAHPRP | -0.0801
144 | RRIRWRPPRLPRPRPRPHYFPRP | -0.087
145 | RRIRARPPRLPRPRPRPHDSPRP | 0.037
146 | RRIRPRPPRLPRPRPRPTQWPRP | 0.248
147 | RRIRYRPPRLPRPRPRPFDFPRP | -0.409
148 | RRIRNRPPRLPRPRPRPIEHPRP | -0.307
149 | RRIRVRPPRLPRPRPRPVGYPRP | -0.0725
150 | RRIRLRPPRLPRPRPRPKHIPRP | -0.241
